PMC3578790, “Tight Interconnection and Multi-Level Control of Arabidopsis MYB44 in MAPK Cascade Signalling”

Target: MYB44 (Arabidopsis thaliana? (Arabidopsis, …, UniProt Q9FDW1 1-305))
Assay: EMSA; no competitor; unlabelled MBSII 100x blocks the shift; unchanged with GST-MPK3 and/or GST-MKK4, with or without 0.5 mM ATP; 10 mM Tris pH 8.0, 5 mM MgCl2, 100 mM KCl, 0.02% Triton X-100, 0.1 mg/ml BSA, 0.25% Tween, 2.5 mM DTT, 3 ng/ul poly(dIdC); 30 min room temperature; 5% PAGE in 0.5x TBE or TAE (TAE main) at 4 C
Settings: protein: recombinant; label: 5' Dy782 (Methods; called IRDye in Results); (only one strand printed)

Sequence of MYB44 (Arabidopsis thaliana? (Q9FDW1 whole entry): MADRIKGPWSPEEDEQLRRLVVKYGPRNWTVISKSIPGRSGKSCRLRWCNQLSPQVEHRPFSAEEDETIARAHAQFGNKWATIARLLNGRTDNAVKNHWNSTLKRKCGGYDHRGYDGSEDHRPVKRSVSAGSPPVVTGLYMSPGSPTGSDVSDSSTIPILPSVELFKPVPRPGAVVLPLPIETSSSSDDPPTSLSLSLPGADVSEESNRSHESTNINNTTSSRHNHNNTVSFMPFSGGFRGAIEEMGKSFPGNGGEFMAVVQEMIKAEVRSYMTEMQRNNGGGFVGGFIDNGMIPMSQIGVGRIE

B1: MBSII (dsDNA)
DNA 1: AGCTTCAAAAGTTAGTTACG
DNA 2: CGTAACTAACTTTTGAAGCT
**Q.** Does B1 bind?
**A.** Result: binds
